Target: the molecule itself
Test: native gel or EMSA; two-dimensional blue native PAGE (4-15% gel) then SDS-PAGE of the membrane fraction solubilised at 4°C in 1.0% (w/v) DDM; about 40 μg protein; spots identified by MALDI-TOF/TOF; complex mass estimated from BN-PAGE markers

| Protein | stoichiometry N |
| --- | --- |
| Polynucleotide phosphorylase/polyadenylase (Cthe_0418) (enzyme, UniProt A3DCH7 1-700, looked up, polynucleotide phosphorylase/polyadenylase, Clostridium thermocellum ATCC 27405, locus Cthe_0418, 77 kDa; also called Polyribonucleotide phosphorylase; PNPase; source: endogenous, C. thermocellum membrane fraction solubilised with 1.0% DDM) MYKTFSMELAGRTLTIETGKLAQLANGSVLVRYGDTVVLSTATASATPREGVDFFPLSVDYEERLYAVGKIPGGFIKREGKPSEKAILTARVIDRPLRPLFPKDLRNDVAIVNTVLSVDQDNSPELAALLGSSIAVSISDIPFNGPVGAVILGLIDGEVIINPTEKQKEISQMYVTLAGTRNKIVMIEAGANEVPDEVMLDAIKKGHEEIKKIVDFIDGIVKEVGKPKFEYESAEVPEEIFNAVREYAYDKMREAVLAVDKQVRDKNIDDLTKEITEHFAEVFPEMEPAIKEAIYKLEKKVVREYILEEGRRVDGRRLDEIRPLSAEVGLLPRVHGSGLFTRGQTQVLSSVTLGAMGDVQILDGIDTEETKRYMHHYNFPGFSVGEAKSSRGPGRREIGHGALAERALEPVIPSEEEFPYTIRVVSEVLMSNGSTSQGSVCGSTLALMDAGVPIKKPVAGISAGLVVDENNPDRFVTFMDIQGIEDFFGDMDFKVAGTKDGITAIQVDIKIDGLTEEIIKQAFELTRKGRLYIIDNVLLKAIPEPRKQMSKYAPKIISTTINPDKIREVIGPGGKMINKIIDETGVKIDINDDGRVYIFSSDIQAGKRARSMIEAIAKDIEPGQVFLGRVIRVTSFGAFVEFLPGKEGLVHISKLDKKRVERVEDIVRVGDQILVKVIEIDKQGRVNLSRKDAMEDEWDK | 2 |
| Carboxyl transferase (Cthe_0699) (enzyme, UniProt A3DDA5 1-516, looked up, carboxyl transferase with two carboxyl transferase domains, Clostridium thermocellum ATCC 27405, locus Cthe_0699, 56 kDa; also called spots 4 and 15; source: endogenous, C. thermocellum membrane fraction solubilised with 1.0% DDM) MDKVDKIGLLREKLAQVEQGGGAEKIAKQHDAGKMTARERIQALFDENSFVEIDTFVETRSIDFDMQKKKVPGDGVVTGYGSIDGRLVFVAAQDFTVIGGSLGEMHAAKITKVMDMAMKMGAPFISINDSGGARIEEGIDALKGFGDIFYRNTLASGVIPQISVIMGPCAGGAVYSPAITDFIFMVDKTSQMFITGPQVIKSVTGEDVTFEKLGGAETHNSISGVAHFRSSSEKECIEQIKKLISYLPDNNLSDVPIVPTQDDINRITDNLVDIIPQDSNKPYDMMEIITSVVDNGDFFEIQKDFAKNIIIGFGRMNGGTVGIVANQPKVAAGVLDVNSSDKAARFVRFCDAFNIPIITFTDVPGYLPGVGQEHSGVIRHGAKLLYAFSEATVPKINVIVRKAYGGAYIAMNSKHLGADMVFAWPSAEIAVMGPEGAANIIFKKDIAAADDPMETRKRLIEEYREKFSNPYVAASRGYVDDVIDPATTRIRLISALEMLASKRENRPAKKHGNIPL | 4 |
| ABC transporter related protein (Cthe_3148) (natural protein, UniProt A3DK64 1-632, looked up, ABC transporter related protein with fused ABC and IM domains, Clostridium thermocellum ATCC 27405, locus Cthe_3148, 70 kDa; also called ABC transporter with fused ABC and IM domains; Class 1 ABC transporter; source: endogenous, C. thermocellum membrane fraction solubilised with 1.0% DDM) MENNVKKNKKSIVLRLFKDILEFYPVMLPVAIVCILFNATISSIPAVFMQNVIAIVENNWRTGDWNAVGGRILSLVAVLVAFYTLSILSGIAYNQMMAIITQGTLKKFRCKMFARMQTLPIKYVDTHNHGDIMSVYTNDIDTLRQMISQSFPQLLLSGITVLTVFSIMVYFCLWLTIIVLIGVIAMFFVTRRVGGGSAKYFIRQQKALGRVEGFIEEMMNGQKVIKVFCREEEVKKDFDKLNEALFDDARKANRYANILAPILNNIGNVLYVFVAITGGVLLVTNAPNVSLSGLSMGISIVVPFLNMTKQFVGNINQVSQQINAVIMGLAGAQRIYELIDEEPEQDDGYVTLVNVREENGQLIECEERTGIWAWKHPHSSDGSVTYTKLMGDVRLFNVDFEYEPGKSVLHDISLYAKPGQKVAFVGATGAGKTTITNLLNRFYDIADGKIRYDGININKIKKSDLRRAVGIVLQDTNLFTGTVMDNIRYGKLDATDEECIAAAKLAGADDFIRRLPDGYYTMLTENGANLSQGQRQLISIARVAVADPPVMILDEATSSIDTRTEAIVQRGMDALMEGRTVFVIAHRLSTVKNANVIIVLDHGRIIERGTHEELIAQKGQYYQLYTGAFELE | 2 |
| Ferritin and Dps (Cthe_0016) (natural protein, UniProt A3DBC9 1-159, looked up, ferritin (annotated Ferritin and Dps), Clostridium thermocellum ATCC 27405, locus Cthe_0016, 18.6 kDa; also called spots 6 and 7; source: endogenous, C. thermocellum membrane fraction solubilised with 1.0% DDM; copies: 24) MSKLYDNLNEQMNFELESAYIYATMSAYLDSLNMKGMTHFFDEQVKEEMEHAGKIKKFLQDTGYGIKYRPLNPGDGKFDSIEDVFKKALAHEKTVTSRINDLVKQAREEGDQRVLNLLAWFVDEQIEEENMFGVLVERLERINGHWNGLYILDKELGER | 24 |
| Ornithine carbamoyltransferase (Cthe_1869) (enzyme, UniProt A3DGL1 1-307, looked up, ornithine carbamoyltransferase, Clostridium thermocellum ATCC 27405, locus Cthe_1869, 34 kDa; also called OTCase; spot 27; source: endogenous, C. thermocellum membrane fraction solubilised with 1.0% DDM) MEHLISLHDLTVEDFESIFKLAEKLKRQQKEGIPHHLLKGKTLGMIFTKSSTRTRVSFEVGMYQLGGYPLFLSANDIQLGRGETIYDTAQVLSRYVDGIMIRTFAQSDVEDLARYGNVPVINGLTDLMHPCQILADLFTIYEHKGTLKGLKLAYVGDGNNVANSLLHGCAKVGMDIAVASPKGYECDSRIVEEAKEDAKASGANILLTEDPEEAIKDADVVYTDTWVSMGQESEKEERIKVFMPYQVNNTLFSKAHEDAIFLHCLPAYRGYEVTEDVIDGSQSVIFDEAENRLHVQKAIMALLMGNK | 3 |

From paper PMC3039559, “A Blue Native-PAGE analysis of membrane protein complexes in Clostridium thermocellum” (BMC Microbiology, 2011)
